{
  "source": "paper PMC4349446",
  "biological_target": "Recombinant truncated LOX-1 (61–273 amino acids, extracellular domain) with a hexa-histidine tag (human) (UniProt P78380)",
  "experiment": "ELISA; human LOX-1 (1 μg/ml) coated on wells; hSAA3 peptide 10–2,000 ng/ml in PBS-0.05% Tween20–0.5% Triton X-100; retained peptide detected with monoclonal anti-hSAA3-HRP",
  "data": [
    {"substance": "hSAA3 C-terminal 26 mer synthetic peptide", "values": [
      {"measurement": "Kd", "value": 99, "unit": "nM"}
    ]}
  ]
}
